# According to the Human Domainome abundance scans (Beltran et al. 2025):
# ± gives the uncertainty stated by the source.
# B1: Far upstream element-binding protein 3, residues 75 to 150; numbered along this chain, Q96I24 (parent)
# chain: RTVITEEFKVPDKMVGFIIGRGGEQISRIQAESGCKIQIASESSGIPERPCVLTGTPESIEQAKRLLGQIVDRCRN
# Variants of: B1
# Assay: abundance fitness (aPCA) (normalised: wild type 0, dead -1); higher = more abundant; growth selection in yeast, the domain comes from the species named
# Conditions: Homo sapiens
row,Variant,abundance fitness
1,G16E,-0.001 ± 0.034
2,P57A,-0.013 ± 0.038
3,E61Q,-0.018 ± 0.045
4,E6I,-0.111 ± 0.057
5,S27T,0.026 ± 0.041
6,E42L,-0.086 ± 0.034
7,R75H,-0.006 ± 0.069
8,G20C,-0.459 ± 0.047
9,R21C,-0.089 ± 0.041
10,G68F,-0.17 ± 0.058
11,S43K,-0.11 ± 0.056
12,C74D,-0.068 ± 0.058
13,I39M,-0.067 ± 0.035
14,T2F,-0.031 ± 0.063
15,K13G,-0.027 ± 0.026
16,G16K,0.018 ± 0.042
17,G34A,-0.124 ± 0.031
18,S41G,-0.015 ± 0.026
19,S59P,-0.866 ± 0.067
20,K64Y,-0.505 ± 0.062
21,E24S,0.016 ± 0.033
22,S33Q,-0.732 ± 0.057
23,P47C,-0.027 ± 0.041
24,G20L,-0.474 ± 0.035

row,Variant,abundance fitness
1,I26C,-0.21 ± 0.047
2,I37E,-0.595 ± 0.038
3,L53K,-1.12 ± 0.1
4,T56Y,-0.049 ± 0.05
5,V15S,-0.102 ± 0.033
6,A63W,-1.25 ± 0.064
7,S44N,-0.053 ± 0.054
8,E61L,-0.082 ± 0.031
9,K13H,0.016 ± 0.056
10,I26L,-0.019 ± 0.032
11,R21S,0.005 ± 0.034
12,E6S,-0.042 ± 0.032
13,S27F,-0.153 ± 0.067
14,Q25M,-0.036 ± 0.046
15,L67T,-0.666 ± 0.058
16,I29K,-0.676 ± 0.058
17,R73S,-0.04 ± 0.033
18,G34S,-0.079 ± 0.043
19,I70T,0.014 ± 0.046
20,I26G,-0.533 ± 0.029
21,S27W,-0.167 ± 0.035
22,E7A,-0.078 ± 0.031
23,V10L,-0.036 ± 0.029
24,I70G,-0.205 ± 0.027

row,Variant,abundance fitness
1,T2V,-0.035 ± 0.033
2,G16D,-0.003 ± 0.043
3,R21H,-0.028 ± 0.053
4,I39S,-0.485 ± 0.037
5,G68A,-0.066 ± 0.033
6,P57I,-0.131 ± 0.1
7,E32N,-0.173 ± 0.079
8,T54R,-0.018 ± 0.034
9,R65A,-0.031 ± 0.033
10,R49M,-0.169 ± 0.039
11,F8K,-0.397 ± 0.053
12,I39F,-0.114 ± 0.052
13,R75Q,-0.026 ± 0.052
14,A31G,-0.06 ± 0.025
15,P50H,-0.04 ± 0.05
16,A31P,-0.774 ± 0.048
17,T54N,-0.1 ± 0.075
18,A31T,-0.039 ± 0.038
19,P47K,-0.023 ± 0.039
20,P11Q,-0.235 ± 0.04
21,S44Y,-0.086 ± 0.067
22,R21A,0.005 ± 0.031
23,I19C,-0.093 ± 0.047
24,S27V,-0.092 ± 0.033

row,Variant,abundance fitness
1,T54L,-0.129 ± 0.048
2,K9L,-0.021 ± 0.031
3,E24I,-0.035 ± 0.055
4,Q38F,-0.1 ± 0.098
5,A31N,-0.044 ± 0.063
6,F8Q,-0.34 ± 0.046
7,E32A,-0.074 ± 0.034
8,T56E,-0.08 ± 0.032
9,E6C,-0.022 ± 0.041
10,S27L,-0.075 ± 0.037
11,Q69E,0.025 ± 0.037
12,G34F,-0.292 ± 0.07
13,M14L,-0.061 ± 0.032
14,Q38A,-0.038 ± 0.031
15,R75C,-0.124 ± 0.055
16,A63G,-0.065 ± 0.025
17,G68V,-0.017 ± 0.032
18,G45D,-0.011 ± 0.041
19,Q25I,-0.112 ± 0.069
20,L53E,-1.05 ± 0.073
21,I19T,-0.039 ± 0.044
22,E42V,-0.041 ± 0.032
23,G55L,-1.39 ± 0.085
24,V15G,-0.135 ± 0.027

row,Variant,abundance fitness
1,P50R,-0.06 ± 0.026
2,V15H,-0.218 ± 0.051
3,I26W,-0.2 ± 0.032
4,G20A,-0.118 ± 0.029
5,I18S,-0.271 ± 0.034
6,I4E,-0.059 ± 0.034
7,G20Q,-0.116 ± 0.04
8,G22I,-0.086 ± 0.078
9,G68D,-0.001 ± 0.048
10,I4G,-0.14 ± 0.026
11,S44L,-0.017 ± 0.034
12,E58V,-0.107 ± 0.036
13,F8C,-0.317 ± 0.041
14,Q69H,0.021 ± 0.059
15,A63H,-0.911 ± 0.1
16,P50L,-0.043 ± 0.03
17,T5P,-0.394 ± 0.059
18,S59G,-0.065 ± 0.028
19,I19V,-0.033 ± 0.033
20,P47R,-0.065 ± 0.025
21,S59Q,-0.014 ± 0.043
22,G23T,-0.1 ± 0.036
23,G45C,-0.094 ± 0.037
24,I37C,-0.239 ± 0.04

row,Variant,abundance fitness
1,V71P,-0.198 ± 0.043
2,F17I,-0.05 ± 0.07
3,S41Y,-0.164 ± 0.069
4,E32D,-0.005 ± 0.047
5,C74H,0.031 ± 0.049
6,R75L,-0.039 ± 0.035
7,D12E,-0.053 ± 0.036
8,I37F,-0.447 ± 0.06
9,T54H,-0.01 ± 0.079
10,G68H,-0.066 ± 0.071
11,G34N,-0.046 ± 0.11
12,R75K,0.043 ± 0.061
13,T54F,-0.378 ± 0.23
14,I4H,-0.146 ± 0.052
15,E32I,-0.04 ± 0.061
16,R65K,0.012 ± 0.044
17,P11I,-0.297 ± 0.081
18,V15I,-0.111 ± 0.051
19,G68E,-0.026 ± 0.038
20,G68Y,-0.045 ± 0.056
21,G45M,-0.101 ± 0.037
22,Q62C,-0.011 ± 0.033
23,I70E,-0.004 ± 0.035
24,M14N,-0.101 ± 0.073

row,Variant,abundance fitness
1,I46T,0.032 ± 0.043
2,I19H,-0.163 ± 0.074
3,N76F,0.023 ± 0.1
4,R1Y,-0.126 ± 0.095
5,E7T,-0.002 ± 0.042
6,C35H,-0.585 ± 0.12
7,S59M,-0.152 ± 0.044
8,Q30P,-0.693 ± 0.05
9,S41D,-0.06 ± 0.044
10,R75E,0.047 ± 0.043
11,G45E,-0.052 ± 0.032
12,G34K,-0.027 ± 0.047
13,D12L,-0.173 ± 0.031
14,S59I,-0.621 ± 0.13
15,E42Q,-0.035 ± 0.042
16,E58D,-0.054 ± 0.062
17,V15C,-0.108 ± 0.038
18,Q38K,-0.022 ± 0.05
19,I19R,-0.045 ± 0.03
20,R73D,0.047 ± 0.052
21,R28M,-0.104 ± 0.046
22,T54A,-0.11 ± 0.046
23,L53D,-0.96 ± 0.13
